Measured values published in the supplement of paper PMC10567573.

B1: MATN2 (parent)
chain: VNVPGSFVCQCYSGYALAEDGKRC
B2: SOAT1 (parent)
chain: VYYIFERLCAPLFRNIKQEPFSAR

Variants of: B1
Assay: protein stability index of a GFP-peptide fusion (GPS, HEK-293T) (PSI 1-6); higher = more stable
Details: c terminus: a fixed tail appended
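Note: lentivirally expressed fusions sorted by FACS into six bins by GFP to DsRed ratio, PSI derived from sequencing read proportions per bin multiplied by bin number.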

Going from Y12P to Y12T, the protein stability index falls from 3.02 to 2.95.

Y12K and V8T are the same in protein stability index: 1.96 for the first, 1.96 for the second.

Compared with V8L, S13N is higher in protein stability index: 2.35 for the first, 2.45 for the second.

Compared with S13I, S13C is higher in protein stability index: 1.62 for the first, 3.25 for the second.

Compared with S13Q, G21Y is higher in protein stability index: 1.5 for the first, 2.18 for the second.

First: G21E
Second: G21C
The protein stability index of the first is lower: 1.84 for the first, 4.22 for the second.

Going from L17N to L17T, the protein stability index falls from 1.91 to 1.75.

Going from C11E to C11M, the protein stability index falls from 3.27 to 1.86.

Going from C11N to C11D, the protein stability index rises from 2.97 to 4.08.

First: C11Y
Second: F7K
The protein stability index of the first is lower: 2.1 for the first, 2.98 for the second.

Compared with F7T, F7Y is lower in protein stability index: 2.88 for the first, 2.01 for the second.

First: G14H
Second: K22R
The protein stability index of the first is higher: 2.37 for the first, 1.08 for the second.

First: K22M
Second: K22S
The protein stability index of the first is lower: 1.23 for the first, 1.7 for the second.

Going from K22E to K22Y, the protein stability index falls from 2.03 to 1.47.

Going from Q10P to Q10A, the protein stability index falls from 2.15 to 1.56.

Going from Q10K to Q10M, the protein stability index rises from 1.7 to 2.88.

First: Q10C
Second: P4R
The protein stability index of the first is higher: 1.7 for the first, 1.33 for the second.

First: P4T
Second: P4I
The protein stability index of the first is lower: 1 for the first, 1.04 for the second.

Compared with P4S, A18H is higher in protein stability index: 1.34 for the first, 2.55 for the second.

First: A18C
Second: A18I
The protein stability index of the first is higher: 3.33 for the first, 1.64 for the second.

Going from C24S to C24K, the protein stability index rises from 2.14 to 2.5.

First: V1E
Second: V1I
The protein stability index of the first is higher: 2.59 for the first, 2.43 for the second.

Compared with V3E, V3D is higher in protein stability index: 1.19 for the first, 2.11 for the second.

First: C9Y
Second: C9H
The protein stability index of the first is lower: 2.2 for the first, 2.95 for the second.

Going from C9P to C9T, the protein stability index falls from 3.06 to 2.52.

First: E19F
Second: E19W
The protein stability index of the first is lower: 1.17 for the first, 1.86 for the second.

Compared with E19M, E19V is lower in protein stability index: 2.33 for the first, 2.29 for the second.

Going from E19R to G5H, the protein stability index rises from 1.51 to 2.6.

Compared with G5S, R23D is higher in protein stability index: 1.91 for the first, 2.78 for the second.

First: R23Q
Second: R23F
The protein stability index of the first is higher: 3.67 for the first, 1.69 for the second.

Compared with D20F, D20S is lower in protein stability index: 2.57 for the first, 2.02 for the second.

Compared with D20Y, D20M is higher in protein stability index: 1.05 for the first, 1.72 for the second.

First: A16N
Second: A16P
The protein stability index of the first is lower: 1.45 for the first, 1.49 for the second.

Compared with A16D, A16F is higher in protein stability index: 2.17 for the first, 2.42 for the second.

Going from A16L to A16M, the protein stability index rises from 1.73 to 1.79.

First: A16S
Second: A16G
The protein stability index of the first is lower: 1.84 for the first, 2.58 for the second.

First: N2A
Second: Y15Q
The protein stability index of the first is lower: 1.9 for the first, 1.98 for the second.

Going from Y15R to Y15L, the protein stability index rises from 2 to 2.19.

Variants of: B2
Assay: as above
Details: c terminus: a fixed tail appended

Compared with S22F, S22W is higher in protein stability index: 2.66 for the first, 2.91 for the second.

Compared with S22G, S22D is higher in protein stability index: 2.8 for the first, 2.88 for the second.

First: S22Q
Second: S22A
The protein stability index of the first is lower: 1.46 for the first, 2.65 for the second.

Going from S22E to S22Y, the protein stability index rises from 2.61 to 3.56.

Going from S22M to S22I, the protein stability index rises from 3.1 to 3.73.

Compared with S22N, S22H is lower in protein stability index: 2.3 for the first, 1.92 for the second.

Compared with S22T, S22K is lower in protein stability index: 2.36 for the first, 1.96 for the second.

First: P20L
Second: P20N
The protein stability index of the first is lower: 2.48 for the first, 2.53 for the second.

First: P20Q
Second: P20A
The protein stability index of the first is higher: 2.44 for the first, 2.34 for the second.

Going from P20I to P20S, the protein stability index falls from 2.71 to 1.36.

First: P20M
Second: P20Y
The protein stability index of the first is lower: 2.49 for the first, 4.1 for the second.

First: P20V
Second: P20G
The protein stability index of the first is lower: 2.6 for the first, 2.71 for the second.

First: P20T
Second: P20W
The protein stability index of the first is higher: 3.49 for the first, 2.79 for the second.

First: P20K
Second: Q18T
The protein stability index of the first is lower: 1.88 for the first, 1.91 for the second.

Going from Q18Y to Q18V, the protein stability index falls from 3.88 to 1.88.

First: Q18P
Second: Q18N
The protein stability index of the first is higher: 2.92 for the first, 1.52 for the second.

Going from Q18W to Q18R, the protein stability index rises from 2.6 to 2.62.

Compared with Q18M, F21E is lower in protein stability index: 2.92 for the first, 2.39 for the second.

Compared with F21H, F21I is higher in protein stability index: 1.59 for the first, 2.94 for the second.

Going from F21N to F21A, the protein stability index rises from 1.36 to 2.07.

Going from F21L to F21S, the protein stability index rises from 1.7 to 2.13.

Going from F21Q to F21V, the protein stability index rises from 1.77 to 2.97.

First: F21T
Second: F21C
The protein stability index of the first is higher: 2.7 for the first, 1.99 for the second.

First: F21W
Second: F21P
The protein stability index of the first is higher: 3.02 for the first, 2.26 for the second.

Going from F21M to F21D, the protein stability index falls from 2.64 to 2.17.

Going from F21Y to F21R, the protein stability index falls from 2.9 to 2.74.

Going from R24A to R24N, the protein stability index rises from 2.27 to 4.22.

Going from R24M to R24I, the protein stability index rises from 2.64 to 2.73.

First: R24E
Second: R24Y
The protein stability index of the first is higher: 3.4 for the first, 1.88 for the second.

Going from R24H to R24V, the protein stability index rises from 2.48 to 2.57.

Compared with R24L, R24K is lower in protein stability index: 2.79 for the first, 2.42 for the second.

First: R24D
Second: E19L
The protein stability index of the first is higher: 3.13 for the first, 1.52 for the second.

Going from E19H to E19T, the protein stability index rises from 1.93 to 2.27.

Going from E19G to E19Y, the protein stability index falls from 2.86 to 2.41.

First: E19D
Second: E19A
The protein stability index of the first is lower: 2.08 for the first, 2.12 for the second.

First: E19P
Second: E19M
The protein stability index of the first is higher: 2.76 for the first, 1.88 for the second.

First: E19F
Second: E19I
The protein stability index of the first is lower: 1.58 for the first, 2.6 for the second.

Going from E19C to E19Q, the protein stability index falls from 3.4 to 3.17.

First: E19N
Second: E19K
The protein stability index of the first is lower: 1.47 for the first, 2.4 for the second.

Going from E19W to A23C, the protein stability index falls from 2.4 to 1.65.

Compared with A23P, A23T is lower in protein stability index: 2.21 for the first, 1.42 for the second.

Going from A23N to A23S, the protein stability index rises from 2.53 to 2.8.

Going from A23L to A23K, the protein stability index falls from 2.55 to 2.41.

Compared with A23W, A23Q is lower in protein stability index: 3.89 for the first, 2.02 for the second.

Compared with A23Y, A23I is lower in protein stability index: 3.86 for the first, 2.1 for the second.

With A23R the protein stability index was 1.9.
